Assay results reported in publication PMC12823420 (2024).
Like-named read-outs stand apart in the source and are kept apart here. Where no end group is shown, it is not given here.

What was measured:
[1] = target: T1, UAP56 (human, UniProt Q13838 1-428)
[2] = target: T1, UAP56; assay: AMP-PNP
[3] = target: T1, UAP56; assay: RNA + AMP-PNP
[4] = target: T1, UAP56; assay: RNA + AMP-PNP; remark: listed apart in the source
[5] = target: T1, UAP56; assay: AMP-PNP; remark: listed apart in the source

koff [1] [s⁻¹]	Kd [2] [µM]	Kd [3] [µM]	koff [4] [s⁻¹]	koff [5] [s⁻¹]	Binder
3.44	12	13	2.67	–	VDVAAEKKVVKITSEIPQTERMQKRAERFNVPVS (also: biotinylated, site not given here) [SARNP UCM-1 peptide, biotinylated]
1.39	11	12	1.68	0.83	SISRKSEDDEKLKKRKERFGIVTS (also: biotinylated, site not given here) [SARNP UCM-4 peptide, biotinylated]
